Results as given in patent publication US20240158489A1.

How the values were obtained:
Conditions in all cases: bispecific antibody
huVEGF = huVEGF (UniProt P15692); assay: -; FIG. 2B
huANG2 [1] = target: huANG2 (UniProt O15123); assay: -; FIG. 2B
huANG2 [2] = target: huANG2 (UniProt O15123); assay: -; FIG. 2A

Sequence of huANG2 (O15123 19-496): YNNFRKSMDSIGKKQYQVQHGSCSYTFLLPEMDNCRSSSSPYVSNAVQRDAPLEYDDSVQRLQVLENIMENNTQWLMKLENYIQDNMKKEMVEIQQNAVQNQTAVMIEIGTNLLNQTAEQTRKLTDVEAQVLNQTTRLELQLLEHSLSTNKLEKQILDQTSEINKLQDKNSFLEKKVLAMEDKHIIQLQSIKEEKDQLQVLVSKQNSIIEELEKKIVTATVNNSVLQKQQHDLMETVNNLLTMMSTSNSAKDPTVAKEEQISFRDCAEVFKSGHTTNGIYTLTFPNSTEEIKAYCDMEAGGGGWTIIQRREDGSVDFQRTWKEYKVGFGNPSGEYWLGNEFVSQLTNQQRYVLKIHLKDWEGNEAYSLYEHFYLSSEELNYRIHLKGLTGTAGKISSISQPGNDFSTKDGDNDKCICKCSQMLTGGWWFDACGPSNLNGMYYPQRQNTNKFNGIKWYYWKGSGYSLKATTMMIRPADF
Sequence of huVEGF (P15692 other isoform, or with tags, fused parts or gaps): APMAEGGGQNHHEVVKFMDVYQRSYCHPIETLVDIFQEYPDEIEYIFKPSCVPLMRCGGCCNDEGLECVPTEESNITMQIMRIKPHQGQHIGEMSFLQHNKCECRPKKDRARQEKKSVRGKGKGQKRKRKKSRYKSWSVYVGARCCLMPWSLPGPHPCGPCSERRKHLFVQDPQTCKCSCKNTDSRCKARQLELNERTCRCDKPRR

Substance: anti-ANG-2×VEGF bispecific antibody ABP201
- Kd (huVEGF): 1.37 nM
- Kd (huANG2 [1]): 32.1 nM
- Kd (huANG2 [2]): 32.1 nM
